The values below come from patent publication US6528620B1, “Sid-polyamide fusions: a potent method of regulating gene expression” (University of Utah Research Foundation, priority 1999, dated 2003).

B5: VP16PAH2 (amino acids 251-404 of mSin3A encoding the PAH2 domain fused to the VP16 activation domain) (other)
chain: SKPSQLQAHTPASQQTPPLPPYASPRSPPVQPHTPVTISLGTAPSLQNNQPVEFNHAINYVNKIKNRFQGQPDIYKAFLEILHTYQKEQRNAKEAGGNYTPALTEQEVYAQVARLFKNQEDLLSEFGQFLPDANSSVLLSKTTAEKVDSVRNDH
notes: range 251-404; Prey of the directed two-hybrid assay in S. cerevisiae L40

Experiment [1] relates to GAL4 DNA binding domain-responsive reporter. Kind of experiment: Transcription assay, Gal4-14D luciferase reporter in 293 cells. The experiment is classed as cell-based. Conditions: relative to the GALDBD alone level, 24 h after transfection. As to the method: Transcription Assays—293 cells were grown in Dulbecco's modified Eagle's medium with 10% defined calf serum (HyClone). 2×10^5 cells were planted on 60-mm dishes and transfected with 200 ng of the Gal4-14D luciferase reporter (Ayer et al., Mol. Cell Biol. 16:5772-5781 (1996)) and 1 μg of the indicated expression vector. Cells harvested 24 h after transfection and luciferase and β-galactosidase activity measured according to the manufacturers' protocols (Promega and Tropix). Each transfection was performed at least twice in triplicate. Error shown is the standard of the mean.
To test whether this minimal thirteen residue interaction domain is sufficient to target a functional mSin3:HDAC corepressor complex to DNA, we fused amino acids 8-20 from Mad1 to the DNA binding domain of the yeast transcriptional activator GAL4 (GALDBD). The transcriptional activity of GALSID(8-20) WT was tested on a reporter containing four GAL4 binding sites cloned upstream of a minimal promoter (FIG. 6A). Consistent with our previous findings (Ayer et al., Mol. Cell. Biol. 16:5772-5781 (1996)), the GALDBD alone activates this reporter approximately 3-fold, and a fusion between the first 35 amino acids of Mad1 and the GALDBD repressed this level of reporter activity approximately 7-fold. […] Amino acids 10, 14, and 17 of the SID can be mutated to alanine without adversely affecting the interaction with PAH2 (FIG. 3). However, it is possible that these residues constitute a surface that interacts with other components of the mSin3-HDAC complex and/or components of the general transcriptional machinery. To test whether mutation of these residues may impair the ability of the SID to recruit a functional corepressor complex, we constructed a minimal SID containing the mutations Q10A, E14A, and D17A in the context of a GALDBD fusion (FIG. 6A).
(In general: In a reporter assay the amount or activity of a reporter protein is the signal.)

Experiment [2] deals with mSin3-HDAC corepressor complex. Kind of experiment: cell-based or functional assay.
The target of experiment [3] is T1, GST-PAH2, a GST fusion to the PAH2 domain of mSIN3A (UniProt P08515 1-218 = GST; Q60520 300-383).
T1 construct: Expressed in bacteria, resolved by SDS-PAGE and immobilised on PVDF membrane
Put plainly: far Western blot, probe purified under native conditions.
Description: Recombinant GST and GST-PAH2 were expressed in bacteria and purified on glutathione-Sepharose 4B (Amersham Pharmacia Biotech). […] The blots were blocked in far Western Buffer (PBS containing 0.1% Nonidet P-40, 1 mM EDTA, and 1 mM dithiothreitol) containing 5% nonfat dry milk for 1 h at 4° C. Purified probes were added to blots in 5 ml of far Western buffer containing 1% nonfat dry milk and incubated together at 4° C. overnight with rocking. Following washing with far Western buffer, the blots were air-dried and exposed 48 h for autoradiography.

For experiment [4], the target named is T2, PAH2 domain of mSin3A (GST-PAH2) (Mus musculus, UniProt Q60520).
T2 construct: GST-PAH2, a GST fusion to the PAH2 domain of mSIN3A; made in house; host or cells: bacteria
T2 sequence (Q60520 300-383 limits assumed): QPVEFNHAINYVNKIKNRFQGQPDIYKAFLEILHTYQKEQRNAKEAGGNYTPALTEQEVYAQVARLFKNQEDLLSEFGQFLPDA
Put plainly: Far Western blot, 35S-labeled Mad1 probes on immobilized GST-PAH2. In kind it is binding, mammalian. As to the method: (§1) Far Western Blotting—Mad1His and Mad1(L12P/A16P)His (Ayer et al., Cell 80:767-776 (1995)), which have a polyhistidine tag fused to their carboxyl termini, were translated in vitro in 50 μl reactions using the TNT coupled reticulocyte lysate system (Promega) and ^35[S]methionine (NEN Life Science Products) and were purified under native or denaturing conditions. Ni^2+-NTA agarose (Qiagen) was blocked with rabbit reticuocyte lysate (diluted 1:3 in PBS) for 30 min at 4° C. and then incubated with the in vitro synthesized Mad1His and Mad1(L12P/A16P)His for 30 min at 4° C. in PBS native or 6 M guanidine hydrochloride, 0.1 M NaH2PO4, and 0.01 M Tris, pH 8.0 (denaturating conditions) followed by extensive washing with the same buffers. The bound proteins were eluted in PBS containing 0.5 M imidazole and then dialyzed overnight against PBS to remove the imidazole and allow for renaturation. Recombinant GST and GST-PAH2 were expressed in bacteria and purified on glutathione-Sepharose 4B (Amersham Pharmacia Biotech). The blots were prepared by resolving 1 μg of GST-PAH2 on 15% SDS-PAGE, followed by transfer to PVDF membrane. The blots were blocked in far Western Buffer (PBS containing 0.1% Nonidet P-40, 1 mM EDTA, and 1 mM dithiothreitol) containing 5% nonfat dry milk for 1 h at 4° C. Purified probes were added to blots in 5 ml of far Western buffer containing 1% nonfat dry milk and incubated together at 4° C. overnight with rocking. Following washing with far Western buffer, the blots were air-dried and exposed 48 h for autoradiography.
To determine whether the interaction between Mad1 and mSin3A is direct, we used far Western blot assays. In these experiments GST-PAH2, a GST fusion to the PAH2 domain of mSIN3A, and GST alone were resolved by SDS-PAGE followed by transfer to a PVDF membrane. […] Equal efficiency of transcription and translation of these proteins was confirmed by SDS-PAGE followed by autoradiography to detect the proteins (data not shown). These protein probes were purified on Ni^2+-NTA agarose under native or denaturing conditions. […]

For a further experiment, the target named is T3, GST (Schistosoma japonicum, UniProt P08515).
T3 construct: made in house; host or cells: bacteria
Kind of experiment: Far Western blot, 35S-labeled Mad1 probes on immobilized GST alone. Conditions: probe purified under denaturing conditions. In kind it is binding. The method, then:
as §1, with “Purified probes were added to blots in 5 ml of far Western buffer containing 1% nonfat dry milk and incubated together at 4° C. overnight with rocking. Following washing with far Western buffer, the blots were air-dried and exposed 48 h for autoradiography.” left out

The target in experiment [5] is B5. Kind of experiment: directed yeast two-hybrid assay (LexA-SID with VP16PAH2, beta-galactosidase).
The target of experiment [6] is T4, LexA fused to amino acids 8-20 of wildtype Mad1 (bacterial; human, UniProt P0A7C2 1-202).
T4 construct: also called SID 8-20; minimal SID
T4 sequence: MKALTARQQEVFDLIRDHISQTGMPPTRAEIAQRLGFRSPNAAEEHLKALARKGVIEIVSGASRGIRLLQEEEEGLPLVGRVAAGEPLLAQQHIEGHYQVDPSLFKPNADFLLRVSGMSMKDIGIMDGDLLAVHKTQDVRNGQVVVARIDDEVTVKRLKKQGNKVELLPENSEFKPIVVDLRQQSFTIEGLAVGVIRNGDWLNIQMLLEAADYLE
The experiment is described as above.

In experiment [7] the target is T5, LexA fused to amino acids 1-57 of Mad1 (bacterial; human, UniProt P0A7C2 1-202; Q05195 1-57).
T5 construct: also called SID 1-57
T5 sequence: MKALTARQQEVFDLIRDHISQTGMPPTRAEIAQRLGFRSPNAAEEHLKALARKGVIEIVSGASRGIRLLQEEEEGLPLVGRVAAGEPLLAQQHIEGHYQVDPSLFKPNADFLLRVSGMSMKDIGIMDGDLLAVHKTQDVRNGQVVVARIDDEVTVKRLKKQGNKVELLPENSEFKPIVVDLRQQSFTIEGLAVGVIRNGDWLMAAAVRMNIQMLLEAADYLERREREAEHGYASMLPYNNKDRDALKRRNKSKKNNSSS
The experiment is described as above.

[8] abbreviates: probe purified under denaturing conditions and renatured.

Where no end group is shown, it is not given here.

T3 sequence (P08515 whole entry): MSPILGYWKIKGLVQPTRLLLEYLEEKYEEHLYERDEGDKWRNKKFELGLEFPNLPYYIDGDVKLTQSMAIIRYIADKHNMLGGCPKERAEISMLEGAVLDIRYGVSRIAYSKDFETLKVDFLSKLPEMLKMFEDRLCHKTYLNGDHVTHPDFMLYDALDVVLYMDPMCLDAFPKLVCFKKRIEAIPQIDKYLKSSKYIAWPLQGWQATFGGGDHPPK

As for “GALSID Q10A, E14A, D17A: minimal SID containing the mutations Q10A, E14A, and D17A in the context of a GALDBD fusion (NIAMLLAAAAYLE; also: GAL4 DNA binding domain fusion; UniProt Q05195 8-20, looked up, variant Q10A E14A D17A)”, in experiment [1], the “repression of reporter activity” value is “repressed transcription to the same extent as the wild-type minimal SID”.

For the molecule “fusion between the first 35 amino acids of Mad1 and the GALDBD (from UniProt P04386 1-147; Q05195 1-35)”, in experiment [2], the repression of a GAL4 DNA binding domain-responsive luciferase reporter in 293 cells came to 7 fold.

B1: Mad1(L12P/A16P)His (other, human, UniProt Q05195 1-221, looked up)
chain: MAAAVRMNIQMPLEAPDYLERREREAEHGYASMLPYNNKDRDALKRRNKSKKNNSSSRSTHNEMEKNRRAHLRLCLEKLKGLVPLGPESSRHTTLSLLTKAKLHIKKLEDCDRKAVHQIDQLQREQRHLKRQLEKLGIERIRMDSIGSTVSSERSDSDREEIDVDVESTDYLTGDLDWSSSSVSDSDERGSMQSLGSDEGYSSTSIKRIKLQDSHKACLGL
modifications: 35S-methionine labelled (in vitro translated)
notes: Mutant Mad1 probe in the far Western blot; not shown: polyhistidine tag fused to the carboxyl terminus
As to B1, the binding result in experiment [3] is on record as “no binding”.

B2: Mad1His: in vitro translated 35S-labeled Mad1 with a polyhistidine tag fused to its carboxyl terminus (protein)
chain: MAAAVRMNIQMLLEAADYLERREREAEHGYASMLPYNNKDRDALKRRNKSKKNNSSSRSTHNEMEKNRRAHLRLCLEKLKGLVPLGPESSRHTTLSLLTKAKLHIKKLEDCDRKAVHQIDQLQREQRHLKRQLEKLGIERIRMDSIGSTVSSERSDSDREEIDVDVESTDYLTGDLDWSSSSVSDSDERGSMQSLGSDEGYSSTSIKRIKLQDSHKACLGL
modifications: left off: small tags and cut ends
notes: in vitro translated 35S-labeled Mad1 with a polyhistidine tag fused to its carboxyl terminus
B2: the “interaction with GST-PAH2” value is recorded as “also interacted with GST-PAH2” in experiment [4] (setting [8]) and “able to interact” in experiment [4] (probe purified under native conditions). Besides, the “interaction with GST alone” value with GST was “not with GST alone”.

B3: Mad1(L12P/A16P)His: polyhistidine-tagged mutant Mad1 protein with L12P/A16P point mutations in the SID (protein)
chain: MAAAVRMNIQMPLEAPDYLERREREAEHGYASMLPYNNKDRDALKRRNKSKKNNSSSRSTHNEMEKNRRAHLRLCLEKLKGLVPLGPESSRHTTLSLLTKAKLHIKKLEDCDRKAVHQIDQLQREQRHLKRQLEKLGIERIRMDSIGSTVSSERSDSDREEIDVDVESTDYLTGDLDWSSSSVSDSDERGSMQSLGSDEGYSSTSIKRIKLQDSHKACLGL
modifications: left off: small tags and cut ends
notes: polyhistidine-tagged mutant Mad1 protein with L12P/A16P point mutations in the SID
Take B3: the “interaction with GST-PAH2” value in experiment [4] (setting [8]) is listed as “did not interact”. In addition, in the experiment with GST, the “interaction with GST alone” value was “did not interact”.

B4: LexA fused to SID 1-27 (other)
chain: MKALTARQQEVFDLIRDHISQTGMPPTRAEIAQRLGFRSPNAAEEHLKALARKGVIEIVSGASRGIRLLQEEEEGLPLVGRVAAGEPLLAQQHIEGHYQVDPSLFKPNADFLLRVSGMSMKDIGIMDGDLLAVHKTQDVRNGQVVVARIDDEVTVKRLKKQGNKVELLPENSEFKPIVVDLRQQSFTIEGLAVGVIRNGDWLMAAAVRMNIQMLLEAADYLERREREAE
notes: Carboxyl-terminal deletion of 30 amino acids from SID 1-57
As to B4, the “fold better binding than SID 1-57 (relative beta-galactosidase activity)” value in experiment [5] is roughly 2 fold.

As for B5, the binding result in experiment [6] and in experiment [7] was “binds” each time.

B6: fusion between the first 35 amino acids of Mad1 and the GALDBD: first 35 amino acids of Mad1 fused to the GAL4 DNA binding domain (protein)
chain: MKLLSSIEQACDICRLKKLKCSKEKPKCAKCLKNNWECRYSPKTKRSPLTRAHLTEVESRLERLEQLFLLIFPREDLDMILKMDSLQDIKALLTGLFVQDNVNKDAVTDRLASVETDMPLTLRQHRISATSSSEESSNKGQRQLTVSMAAAVRMNIQMLLEAADYLERREREAEHGYASMLP
For B6, the “repression of reporter activity” value in experiment [1] is reported as “approximately 7 fold”.

B7: GALSID(8-20) WT: amino acids 8-20 from Mad1 fused to the GAL4 DNA binding domain (protein)
chain: MKLLSSIEQACDICRLKKLKCSKEKPKCAKCLKNNWECRYSPKTKRSPLTRAHLTEVESRLERLEQLFLLIFPREDLDMILKMDSLQDIKALLTGLFVQDNVNKDAVTDRLASVETDMPLTLRQHRISATSSSEESSNKGQRQLTVSNIQMLLEAADYLE
For the molecule B7, the “repression of reporter activity” value was “repressed transcription to approximately the same level” in experiment [1] and “functions similarly to the longer 35-amino acid SID” in experiment [1] (listed as minimal thirteen amino acid SID).
